The term Kd denotes the concentration at which binding is half-saturated. Higher therefore signals a looser complex.

B1: Ab373 (antibody, V domains shown)
VH: EVQLVQSGAEVKKPGSSVKVSCKASGYTFSSYWMHWVRQAPGQGLEWIGYIKPSSGYTKYNQKFKDKATLTADKSTSTAYMELSSLRSEDTAVYYCARDYYGSSSWFAYWGQGTLVTVSS
VL: DIVMTQSQAFMSVTVGEKVTITCKASQNVGTNVAWYQQKPDQAPKALIYSASYRYSGVPSRFSGSGSGTDFTLTISSLEAEDAATYYCQQYNSYPYMYTFGQGTKLEIK
notes: humanized
B2: Ab420 (antibody, V domains shown)
VH: B1 VH with V20L, S30T
VL: EIVMTQSQATLSTSPGERATLSCKASQNVGTNVAWYQQKPGQAPRALIYSASYRYSGVPARFSGSGSGTDFTLTISSVEPEDFAVYYCQQYNSYPYMYTFGQGTKLEIK
notes: humanized
B3: Ab411 (antibody, V domains shown)
VH: B1 VH with E1Q, K12A, S16T, V20L, S30T, R38K, A68V
VL: B2 VL
notes: humanized
B4: Ab392 (antibody, V domains shown)
VH: B1 VH with S16A, V20L, S30T, S84R, E89D
VL: B2 VL with Q8P
notes: humanized
B5: Ab407 (antibody, V domains shown)
VH: B1 VH with E1Q, K12A, V20L, S30T, R38K
VL: B2 VL with L11M, P15V, A43S, R45K
notes: humanized
B6: Ab387 (antibody, V domains shown)
VH: B1 VH with E1Q, K12A, S16T, V20L, S30T, R38K, A68V
VL: B2 VL with Q8P
notes: humanized
B7: Ab381 (antibody, V domains shown)
VH: B1 VH with K12A, S16A, V20L, S30T, S84R, E89D
VL: B1 VL with D1E, Q8P, A43S
notes: humanized
B8: Ab375 (antibody, V domains shown)
VH: B1 VH with E1Q, K12A, S16T, V20L, S30T, R38K, A68V
VL: B1 VL with D1E, Q8P, A43S
notes: humanized
B9: Ab379 (antibody, V domains shown)
VH: B1 VH with E1Q, K12A, S16A, V20L, S30T, R38K, S84R, E89D
VL: B1 VL with D1E, Q8P, A43S
notes: humanized
B10: Ab397 (antibody, V domains shown)
VH: B1 VH
VL: B2 VL with Q8P
notes: humanized
B11: Ab389 (antibody, V domains shown)
VH: B1 VH with S16T, V20L, S30T, Y32S, W33A, H35Q, R38K
VL: B2 VL with Q8P
notes: humanized
B12: Ab395 (antibody, V domains shown)
VH: B1 VH with E1Q, K12A, V20L, S30T, R38K
VL: B2 VL with Q8P
notes: humanized
B13: Ab391 (antibody, V domains shown)
VH: B1 VH with E1Q, K12A, S16A, V20L, S30T, R38K, S84R, E89D
VL: B2 VL with Q8P
notes: humanized
B14: Ab405 (antibody, V domains shown)
VH: B1 VH with K12A, S16A, V20L, S30T, S84R, E89D
VL: B2 VL with L11M, P15V, A43S, R45K
notes: humanized
B15: Ab408 (antibody, V domains shown)
VH: B1 VH with V20L, S30T
VL: B2 VL with L11M, P15V, A43S, R45K
notes: humanized
B16: Ab380 (antibody, V domains shown)
VH: B1 VH with S16A, V20L, S30T, S84R, E89D
VL: B1 VL with D1E, Q8P, A43S
notes: humanized
B17: Ab401 (antibody, V domains shown)
VH: B1 VH with S16T, V20L, S30T, Y32S, W33A, H35Q, R38K
VL: B2 VL with L11M, P15V, A43S, R45K
notes: humanized
B18: Ab377 (antibody, V domains shown)
VH: B1 VH with S16T, V20L, S30T, Y32S, W33A, H35Q, R38K
VL: B1 VL with D1E, Q8P, A43S
notes: humanized
B19: Ab398 (antibody, V domains shown)
VH: B1 VH with V20L, R38K, N61A, K65Q, D66G, K67R, A68V
VL: B2 VL with Q8P
notes: humanized
B20: Ab414 (antibody, V domains shown)
VH: B1 VH with S16T, V20L, S30T, P41R, G44R, N61A, K65Q, D66E, K67R, A68V
VL: B2 VL
notes: humanized
B21: Ab388 (antibody, V domains shown)
VH: B1 VH with A9P, S16T, V20L, S30T, P41R, G44R, K67R
VL: B2 VL with Q8P
notes: humanized
B22: Ab383 (antibody, V domains shown)
VH: B1 VH with E1Q, K12A, V20L, S30T, R38K
VL: B1 VL with D1E, Q8P, A43S
notes: humanized
B23: Ab394 (antibody, V domains shown)
VH: EVQLVQSGAEVKKPGASVKLSCKASGYTFTSYWMHWVRQAPGQGLEWIGYIKPSSGYTKYAQKLQGRVTLTADKSTSTAYMELRSLRSDDTAVYYCARDYYGSSSWFAYWGQGTLVTVSS
VL: B2 VL with Q8P
notes: humanized
B24: Ab412 (antibody, V domains shown)
VH: B1 VH with A9P, S16T, V20L, S30T, P41R, G44R, K67R
VL: B2 VL
notes: humanized
B25: Ab390 (antibody, V domains shown)
VH: B23 VH with A16T, P41R, G44R, L64F, G66E, R84S, D89E
VL: B2 VL with Q8P
notes: humanized
B26: Ab399 (antibody, V domains shown)
VH: B1 VH with E1Q, K12A, S16T, V20L, S30T, R38K, A68V
VL: B2 VL with L11M, P15V, A43S, R45K
notes: humanized
B27: Ab404 (antibody, V domains shown)
VH: B1 VH with S16A, V20L, S30T, S84R, E89D
VL: B2 VL with L11M, P15V, A43S, R45K
notes: humanized
B28: Ab382 (antibody, V domains shown)
VH: B23 VH
VL: B1 VL with D1E, Q8P, A43S
notes: humanized
B29: Ab376 (antibody, V domains shown)
VH: B1 VH with A9P, S16T, V20L, S30T, P41R, G44R, K67R
VL: B1 VL with D1E, Q8P, A43S
notes: humanized
B30: Ab396 (antibody, V domains shown)
VH: B1 VH with V20L, S30T
VL: B2 VL with Q8P
notes: humanized
B31: Ab374 (antibody, V domains shown)
VH: B23 VH with A16S, T30S, R38K, L64F, R84S, D89E
VL: B1 VL
notes: humanized
B32: Ab409 (antibody, V domains shown)
VH: B1 VH
VL: B2 VL with L11M, P15V, A43S, R45K
notes: humanized
B33: Ab413 (antibody, V domains shown)
VH: B1 VH with S16T, V20L, S30T, Y32S, W33A, H35Q, R38K
VL: B2 VL
notes: humanized
B34: Ab410 (antibody, V domains shown)
VH: B23 VH with A16S, T30S, R38K, L64F, R84S, D89E
VL: B2 VL with L11M, P15V, A43S, R45K
notes: humanized
B35: Ab393 (antibody, V domains shown)
VH: B1 VH with K12A, S16A, V20L, S30T, S84R, E89D
VL: B2 VL with Q8P
notes: humanized
B36: Ab386 (antibody, V domains shown)
VH: B23 VH with A16S, T30S, R38K, L64F, R84S, D89E
VL: B1 VL with D1E, Q8P, A43S
notes: humanized
B37: Ab378 (antibody, V domains shown)
VH: B23 VH with A16T, P41R, G44R, L64F, G66E, R84S, D89E
VL: B1 VL with D1E, Q8P, A43S
notes: humanized
B38: Ab385 (antibody, V domains shown)
VH: B1 VH
VL: B1 VL with D1E, Q8P, A43S
notes: humanized

Changes are numbered by the printed parent chain.

For the test, the target named is T1, purified ALK protein (BLitz, Table 20) (Homo sapiens (Human), UniProt Q9UM73 19-1038, limits assumed).
T1 construct: also called purified ALK proteins
T1 sequence (Q9UM73 19-1038 limits assumed): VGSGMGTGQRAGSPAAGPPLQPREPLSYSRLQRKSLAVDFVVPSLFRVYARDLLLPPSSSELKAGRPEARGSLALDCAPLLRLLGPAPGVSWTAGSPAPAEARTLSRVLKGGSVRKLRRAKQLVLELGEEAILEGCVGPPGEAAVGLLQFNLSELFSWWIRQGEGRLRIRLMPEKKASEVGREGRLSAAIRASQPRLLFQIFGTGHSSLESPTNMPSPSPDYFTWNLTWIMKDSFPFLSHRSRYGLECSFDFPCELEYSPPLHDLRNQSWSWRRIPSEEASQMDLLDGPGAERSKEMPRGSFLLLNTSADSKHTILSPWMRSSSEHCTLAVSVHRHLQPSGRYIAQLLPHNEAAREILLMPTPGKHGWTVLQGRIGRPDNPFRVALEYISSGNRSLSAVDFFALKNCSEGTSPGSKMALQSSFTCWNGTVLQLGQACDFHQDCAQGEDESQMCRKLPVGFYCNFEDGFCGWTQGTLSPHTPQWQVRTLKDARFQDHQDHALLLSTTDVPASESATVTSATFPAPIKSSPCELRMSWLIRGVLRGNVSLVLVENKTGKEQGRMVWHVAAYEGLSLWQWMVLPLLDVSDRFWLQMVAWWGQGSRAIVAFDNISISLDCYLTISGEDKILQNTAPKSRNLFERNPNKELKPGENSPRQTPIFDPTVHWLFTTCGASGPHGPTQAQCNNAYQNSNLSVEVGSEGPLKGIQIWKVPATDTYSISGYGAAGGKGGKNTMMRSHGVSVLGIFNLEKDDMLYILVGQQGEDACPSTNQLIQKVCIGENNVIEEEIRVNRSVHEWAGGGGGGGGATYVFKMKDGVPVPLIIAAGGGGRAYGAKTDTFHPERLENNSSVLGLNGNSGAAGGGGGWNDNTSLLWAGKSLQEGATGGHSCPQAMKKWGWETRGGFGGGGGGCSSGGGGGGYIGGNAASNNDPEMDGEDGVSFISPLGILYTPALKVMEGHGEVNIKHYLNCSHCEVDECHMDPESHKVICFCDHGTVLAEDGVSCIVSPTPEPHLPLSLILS
Description: BLI (BLitz), mAb on Protein A tip, purified ALK in solution. Here is the method:
Kinetic measurements of the monovalent affinity of the 96 humanized ALK antibody variants (Ab351-Ab446) were collected. Affinity ranking was performed using a BLitz® System (ForteBio, Menlo Park, Calif.). Humanized anti-ALK antibodies were immobilized at 0.5 mg/mL using Protein A tips. Once baseline stability was ensured, purified ALK proteins at 70 μg/mL were added. The resulting kinetic data were fit to a single binding site equation, from which the quoted monovalent KD values were derived.
Molecule B1 displayed a Kd of 280 nM. In the case of B2, binding was characterised by a dissociation constant (Kd) of 233 nM. This Kd and that of the molecule before are within 1.5-fold of each other. In the case of B3 it was 143 nM. In the case of B4, the Kd stood at 179 nM. The Kd values of the last two molecules are within 1.5-fold of each other. In the case of B5 it was 109 nM; in that of B6, 158 nM.

Molecule B7 came in with a Kd of 180 nM. In the case of B8 it was 140 nM; in that of B9, 118 nM; in that of B10, 378 nM.

Take B11: the dissociation constant (Kd) was determined as 1550 nM. Molecule B12 returned a Kd of 132 nM. As to B13, the Kd came out at 175 nM. The Kd values of the last two molecules are within 1.5-fold of each other. In the case of B14 it was 195 nM; in that of B15, 144 nM; in that of B16, 141 nM. In the case of B17 it was 1060 nM; in that of B18, 927 nM; in that of B19, 221 nM. In the case of B20 it was 142 nM; in that of B21, 108 nM.

With B22, the Kd was determined as 132 nM. B23 returned a Kd of 157 nM. For the molecule B24, the Kd worked out at 111 nM. This Kd and that of the molecule before are within 1.5-fold of each other. In the case of B25 it was 288 nM. In the case of B26 it was 107 nM; in that of B27, 132 nM; in that of B28, 141 nM. In the case of B29 it was 103 nM.

As to B30, binding was put at a Kd of 176 nM. In the case of B31 it was 253 nM; in that of B32, 208 nM; in that of B33, 1660 nM.

For the molecule B34, binding was put at a Kd of 144 nM. In the case of B35 it was 186 nM; in that of B36, 257 nM. In the case of B37 it was 167 nM.

Turning to B38, the Kd amounted to 626 nM. Compared with the last molecule, the Kd is about 3.7-fold higher.

The values above are taken from US20200157236A1 (CELLDEX THERAPEUTICS, published 2020).
